Data taken from the supplement of paper PMC7125110.
± gives the standard error. This sample holds only a part of the variants without activity.

B1: glmS ribozyme (parent)
chain: AUAAAAGCGCCAGAACUACAGAAAUGUAGUUGACGAGGAGGAGGUUUAUCGAAUUUUCGGCGGAUGCCUCCAAA

Key:
Settings in all cases: with glucosamine-6-phosphate
glucosamine-6-phosphate [1] = variants of: B1; test: self-cleavage kobs at 640 uM GlcN6P; higher = faster cleavage; RNA array
How it was run: (§1)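 Barcoded ribozyme variants were transcribed in situ on sequenced MiSeq chips by E. coli RNA polymerase. At 37 °C, a hybridised Cy3 probe tracked them while glucosamine-6-phosphate (40 μM to 10 mM) in HEPES/KCl/Mg(OAc)2 buffer flowed in and tiles were imaged over ~14 h. Per-tile medians of signals normalised to baseline and to non-cleaving reference variants were fit to one- or two-exponential decays, giving kobs. kcat and KM came from weighted Michaelis–Menten fits across concentrations.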

glucosamine-6-phosphate [2] = variants of: B1; test: self-cleavage kobs at 2500 uM GlcN6P; higher = faster cleavage; RNA array
How it was run: as §1

glucosamine-6-phosphate [3] = variants of: B1; test: self-cleavage kobs at 10000 uM GlcN6P; higher = faster cleavage; RNA array
How it was run: as §1

U65A G66A C71U
self-cleavage kobs at 640 uM GlcN6P (glucosamine-6-phosphate [1]): 0.000198 ± 4.2e-05 s⁻¹ | self-cleavage kobs at 2500 uM GlcN6P (glucosamine-6-phosphate [2]): 0.000397 ± 0.0001 s⁻¹

U57G G62C C68U C70G
self-cleavage kobs at 640 uM GlcN6P (glucosamine-6-phosphate [1]): 4.22e-05 ± 2e-05 s⁻¹

U65G G66C
self-cleavage kobs at 640 uM GlcN6P (glucosamine-6-phosphate [1]): 0.000223 ± 4.9e-05 s⁻¹ | self-cleavage kobs at 10000 uM GlcN6P (glucosamine-6-phosphate [3]): 0.00137 ± 0.00016 s⁻¹

G44C A48U C50A
self-cleavage kobs at 640 uM GlcN6P (glucosamine-6-phosphate [1]): < 1e-05 s⁻¹

A39U G44U U47C G51U
self-cleavage kobs at 640 uM GlcN6P (glucosamine-6-phosphate [1]): < 1e-05 s⁻¹

A53U U54A U56A C70G
self-cleavage kobs at 640 uM GlcN6P (glucosamine-6-phosphate [1]): 0.000134 ± 3e-05 s⁻¹ | self-cleavage kobs at 2500 uM GlcN6P (glucosamine-6-phosphate [2]): 8.57e-05 ± 1.9e-05 s⁻¹

C50G C67G C70U C71A
self-cleavage kobs at 640 uM GlcN6P (glucosamine-6-phosphate [1]): 0.000149 ± 4.5e-05 s⁻¹ | self-cleavage kobs at 2500 uM GlcN6P (glucosamine-6-phosphate [2]): 0.000157 ± 2.9e-05 s⁻¹

U49G C50U G66U C70U
self-cleavage kobs at 640 uM GlcN6P (glucosamine-6-phosphate [1]): 8.76e-05 ± 3.9e-05 s⁻¹

U46A A48G C50U
self-cleavage kobs at 640 uM GlcN6P (glucosamine-6-phosphate [1]): < 1e-05 s⁻¹ | self-cleavage kobs at 2500 uM GlcN6P (glucosamine-6-phosphate [2]): < 1e-05 s⁻¹

G60U U69A
self-cleavage kobs at 640 uM GlcN6P (glucosamine-6-phosphate [1]): < 1e-05 s⁻¹ | self-cleavage kobs at 2500 uM GlcN6P (glucosamine-6-phosphate [2]): < 1e-05 s⁻¹ | self-cleavage kobs at 10000 uM GlcN6P (glucosamine-6-phosphate [3]): < 1e-05 s⁻¹

C68A U69G
self-cleavage kobs at 640 uM GlcN6P (glucosamine-6-phosphate [1]): 9.62e-05 ± 3.5e-05 s⁻¹

A6C A33U G37C A42U A48C U56A G59U C68G
self-cleavage kobs at 2500 uM GlcN6P (glucosamine-6-phosphate [2]): < 1e-05 s⁻¹

A39G C67G C68G
self-cleavage kobs at 640 uM GlcN6P (glucosamine-6-phosphate [1]): 9.65e-05 ± 2.5e-05 s⁻¹ | self-cleavage kobs at 2500 uM GlcN6P (glucosamine-6-phosphate [2]): 7.78e-05 ± 1.7e-05 s⁻¹

A6C C16G U45G G59U
self-cleavage kobs at 2500 uM GlcN6P (glucosamine-6-phosphate [2]): < 1e-05 s⁻¹

G40U G44U G62U
self-cleavage kobs at 640 uM GlcN6P (glucosamine-6-phosphate [1]): < 1e-05 s⁻¹ | self-cleavage kobs at 2500 uM GlcN6P (glucosamine-6-phosphate [2]): < 1e-05 s⁻¹

A64U C67U C71U
self-cleavage kobs at 640 uM GlcN6P (glucosamine-6-phosphate [1]): < 1e-05 s⁻¹

U56C U57C
self-cleavage kobs at 640 uM GlcN6P (glucosamine-6-phosphate [1]): 7.5e-05 ± 2.2e-05 s⁻¹ | self-cleavage kobs at 2500 uM GlcN6P (glucosamine-6-phosphate [2]): 8.12e-05 ± 1.7e-05 s⁻¹

G40A A42G A53U
self-cleavage kobs at 640 uM GlcN6P (glucosamine-6-phosphate [1]): 0.000733 ± 0.00023 s⁻¹ | self-cleavage kobs at 2500 uM GlcN6P (glucosamine-6-phosphate [2]): 0.000522 ± 0.00021 s⁻¹

G43A U46G C70G
self-cleavage kobs at 640 uM GlcN6P (glucosamine-6-phosphate [1]): < 1e-05 s⁻¹ | self-cleavage kobs at 2500 uM GlcN6P (glucosamine-6-phosphate [2]): < 1e-05 s⁻¹

U46C G51C C70U
self-cleavage kobs at 640 uM GlcN6P (glucosamine-6-phosphate [1]): < 1e-05 s⁻¹ | self-cleavage kobs at 2500 uM GlcN6P (glucosamine-6-phosphate [2]): < 1e-05 s⁻¹

U47C G59U
self-cleavage kobs at 640 uM GlcN6P (glucosamine-6-phosphate [1]): < 1e-05 s⁻¹

C50G C58U C61U
self-cleavage kobs at 640 uM GlcN6P (glucosamine-6-phosphate [1]): 0.000479 ± 0.00011 s⁻¹

A52G U54A C68U
self-cleavage kobs at 640 uM GlcN6P (glucosamine-6-phosphate [1]): 6.73e-05 ± 2e-05 s⁻¹

C61U C67G
self-cleavage kobs at 640 uM GlcN6P (glucosamine-6-phosphate [1]): < 1e-05 s⁻¹

A53U C58G C68U
self-cleavage kobs at 640 uM GlcN6P (glucosamine-6-phosphate [1]): 9.02e-05 ± 3.1e-05 s⁻¹

G43U G66U C71G
self-cleavage kobs at 640 uM GlcN6P (glucosamine-6-phosphate [1]): < 1e-05 s⁻¹ | self-cleavage kobs at 2500 uM GlcN6P (glucosamine-6-phosphate [2]): < 1e-05 s⁻¹

G51A G66A U69A
self-cleavage kobs at 640 uM GlcN6P (glucosamine-6-phosphate [1]): 0.000177 ± 7.9e-05 s⁻¹

U46G C50U C67U C68A U69G
self-cleavage kobs at 640 uM GlcN6P (glucosamine-6-phosphate [1]): 0.00024 ± 9.9e-05 s⁻¹ | self-cleavage kobs at 10000 uM GlcN6P (glucosamine-6-phosphate [3]): 4.36e-05 ± 1.5e-05 s⁻¹

G43A U49G C50G U57C
self-cleavage kobs at 640 uM GlcN6P (glucosamine-6-phosphate [1]): < 1e-05 s⁻¹

U49C U54A G63U
self-cleavage kobs at 640 uM GlcN6P (glucosamine-6-phosphate [1]): < 1e-05 s⁻¹ | self-cleavage kobs at 2500 uM GlcN6P (glucosamine-6-phosphate [2]): < 1e-05 s⁻¹

G41U U47G G51U
self-cleavage kobs at 640 uM GlcN6P (glucosamine-6-phosphate [1]): < 1e-05 s⁻¹ | self-cleavage kobs at 2500 uM GlcN6P (glucosamine-6-phosphate [2]): < 1e-05 s⁻¹

C58G U65C
self-cleavage kobs at 640 uM GlcN6P (glucosamine-6-phosphate [1]): < 1e-05 s⁻¹ | self-cleavage kobs at 2500 uM GlcN6P (glucosamine-6-phosphate [2]): < 1e-05 s⁻¹

G60U G63U C70A
self-cleavage kobs at 640 uM GlcN6P (glucosamine-6-phosphate [1]): < 1e-05 s⁻¹

A6C A14C G32A G38U
self-cleavage kobs at 2500 uM GlcN6P (glucosamine-6-phosphate [2]): < 1e-05 s⁻¹

U55A U57G
self-cleavage kobs at 640 uM GlcN6P (glucosamine-6-phosphate [1]): 2.18e-05 ± 1e-05 s⁻¹ | self-cleavage kobs at 2500 uM GlcN6P (glucosamine-6-phosphate [2]): 2.56e-05 ± 7.4e-06 s⁻¹ | self-cleavage kobs at 10000 uM GlcN6P (glucosamine-6-phosphate [3]): 7.86e-05 ± 1.2e-05 s⁻¹

A42U C58A C61G
self-cleavage kobs at 640 uM GlcN6P (glucosamine-6-phosphate [1]): < 1e-05 s⁻¹ | self-cleavage kobs at 2500 uM GlcN6P (glucosamine-6-phosphate [2]): < 1e-05 s⁻¹

C58A G60U
self-cleavage kobs at 640 uM GlcN6P (glucosamine-6-phosphate [1]): < 1e-05 s⁻¹ | self-cleavage kobs at 2500 uM GlcN6P (glucosamine-6-phosphate [2]): < 1e-05 s⁻¹ | self-cleavage kobs at 10000 uM GlcN6P (glucosamine-6-phosphate [3]): < 1e-05 s⁻¹

G43A U55A C58U
self-cleavage kobs at 640 uM GlcN6P (glucosamine-6-phosphate [1]): < 1e-05 s⁻¹

A52G U69G C70U
self-cleavage kobs at 640 uM GlcN6P (glucosamine-6-phosphate [1]): 0.000107 ± 3.1e-05 s⁻¹ | self-cleavage kobs at 2500 uM GlcN6P (glucosamine-6-phosphate [2]): 7.59e-05 ± 1.7e-05 s⁻¹

U47G G51U
self-cleavage kobs at 640 uM GlcN6P (glucosamine-6-phosphate [1]): < 1e-05 s⁻¹

A1U G41U C70G C71U
self-cleavage kobs at 2500 uM GlcN6P (glucosamine-6-phosphate [2]): 0.000249 ± 4e-05 s⁻¹ | self-cleavage kobs at 10000 uM GlcN6P (glucosamine-6-phosphate [3]): 0.000232 ± 6e-05 s⁻¹

U45C U47C
self-cleavage kobs at 640 uM GlcN6P (glucosamine-6-phosphate [1]): 0.000179 ± 5.5e-05 s⁻¹ | self-cleavage kobs at 2500 uM GlcN6P (glucosamine-6-phosphate [2]): 0.000515 ± 0.00013 s⁻¹

G41U U45A G51C C58G
self-cleavage kobs at 640 uM GlcN6P (glucosamine-6-phosphate [1]): < 1e-05 s⁻¹ | self-cleavage kobs at 2500 uM GlcN6P (glucosamine-6-phosphate [2]): < 1e-05 s⁻¹

G41A G44U G66A
self-cleavage kobs at 640 uM GlcN6P (glucosamine-6-phosphate [1]): < 1e-05 s⁻¹ | self-cleavage kobs at 2500 uM GlcN6P (glucosamine-6-phosphate [2]): < 1e-05 s⁻¹

U45C A48C G63U
self-cleavage kobs at 640 uM GlcN6P (glucosamine-6-phosphate [1]): < 1e-05 s⁻¹ | self-cleavage kobs at 2500 uM GlcN6P (glucosamine-6-phosphate [2]): < 1e-05 s⁻¹

A6C A15U G43A C71U
self-cleavage kobs at 2500 uM GlcN6P (glucosamine-6-phosphate [2]): < 1e-05 s⁻¹

G41A G63U U65G C70U
self-cleavage kobs at 640 uM GlcN6P (glucosamine-6-phosphate [1]): < 1e-05 s⁻¹ | self-cleavage kobs at 2500 uM GlcN6P (glucosamine-6-phosphate [2]): < 1e-05 s⁻¹

A52C G62A G63C
self-cleavage kobs at 640 uM GlcN6P (glucosamine-6-phosphate [1]): < 1e-05 s⁻¹

A39U A53C C71A
self-cleavage kobs at 640 uM GlcN6P (glucosamine-6-phosphate [1]): 8.85e-05 ± 1.7e-05 s⁻¹ | self-cleavage kobs at 2500 uM GlcN6P (glucosamine-6-phosphate [2]): 0.000186 ± 5.3e-05 s⁻¹

G63C U69G
self-cleavage kobs at 640 uM GlcN6P (glucosamine-6-phosphate [1]): 5.78e-05 ± 2.2e-05 s⁻¹

A6G G13U G40A C71U
self-cleavage kobs at 2500 uM GlcN6P (glucosamine-6-phosphate [2]): < 1e-05 s⁻¹

U45G G60A C67G
self-cleavage kobs at 640 uM GlcN6P (glucosamine-6-phosphate [1]): < 1e-05 s⁻¹ | self-cleavage kobs at 2500 uM GlcN6P (glucosamine-6-phosphate [2]): < 1e-05 s⁻¹

A48U C58A C61G
self-cleavage kobs at 640 uM GlcN6P (glucosamine-6-phosphate [1]): < 1e-05 s⁻¹

A6G G9U G29U G37A U46C U56C
self-cleavage kobs at 2500 uM GlcN6P (glucosamine-6-phosphate [2]): < 1e-05 s⁻¹

U46A A52C C61U
self-cleavage kobs at 640 uM GlcN6P (glucosamine-6-phosphate [1]): < 1e-05 s⁻¹ | self-cleavage kobs at 2500 uM GlcN6P (glucosamine-6-phosphate [2]): < 1e-05 s⁻¹

G51C A64C
self-cleavage kobs at 640 uM GlcN6P (glucosamine-6-phosphate [1]): < 1e-05 s⁻¹ | self-cleavage kobs at 10000 uM GlcN6P (glucosamine-6-phosphate [3]): < 1e-05 s⁻¹

A48U G62U C70U
self-cleavage kobs at 640 uM GlcN6P (glucosamine-6-phosphate [1]): < 1e-05 s⁻¹

C61G G63A C71G
self-cleavage kobs at 640 uM GlcN6P (glucosamine-6-phosphate [1]): 0.000127 ± 4.2e-05 s⁻¹ | self-cleavage kobs at 2500 uM GlcN6P (glucosamine-6-phosphate [2]): 0.000255 ± 9.2e-05 s⁻¹

A42U G51A G63U
self-cleavage kobs at 640 uM GlcN6P (glucosamine-6-phosphate [1]): < 1e-05 s⁻¹

G41C G51U A64C
self-cleavage kobs at 640 uM GlcN6P (glucosamine-6-phosphate [1]): < 1e-05 s⁻¹ | self-cleavage kobs at 2500 uM GlcN6P (glucosamine-6-phosphate [2]): < 1e-05 s⁻¹

A6G C34A C50U U69A
self-cleavage kobs at 2500 uM GlcN6P (glucosamine-6-phosphate [2]): < 1e-05 s⁻¹

A6G A36C U55C
self-cleavage kobs at 2500 uM GlcN6P (glucosamine-6-phosphate [2]): < 1e-05 s⁻¹

G41A U55C
self-cleavage kobs at 640 uM GlcN6P (glucosamine-6-phosphate [1]): 1.88e-05 ± 8.5e-06 s⁻¹ | self-cleavage kobs at 2500 uM GlcN6P (glucosamine-6-phosphate [2]): 0.000105 ± 1.9e-05 s⁻¹

A52C A53C U55C C67G
self-cleavage kobs at 640 uM GlcN6P (glucosamine-6-phosphate [1]): < 1e-05 s⁻¹ | self-cleavage kobs at 2500 uM GlcN6P (glucosamine-6-phosphate [2]): < 1e-05 s⁻¹

A6C C34U C50G
self-cleavage kobs at 2500 uM GlcN6P (glucosamine-6-phosphate [2]): 0.000502 ± 0.00022 s⁻¹

U55G G63U
self-cleavage kobs at 640 uM GlcN6P (glucosamine-6-phosphate [1]): < 1e-05 s⁻¹ | self-cleavage kobs at 2500 uM GlcN6P (glucosamine-6-phosphate [2]): < 1e-05 s⁻¹
